In patent US20160002357A1 (Pfizer, published 2016):

B1: 178 EK-DART (bispecific antibody)
chain 1: QSVLTQPPSVSAAPGQKVTISCSGSSSNIGNNYVSWYQQLPGTAPKLLIYDNNKRPSGIPDRFSGSKSGTSATLGITGLQTGDEADYYCGTWDSSLSAVVFGGGTKLTVLGGGSGGGGEVQLVESGGGLVQPGGSLRLSCAASGFTFNTYAMNWVRQAPGKGLEWVARIRSKYNNYATYYADSVKDRFTISRDDSKNSLYLQMNSLKTEDTAVYYCVRHGNFGNSYVSWFAYWGQGTLVTVSSGGCGGGKVAALKEKVAALKEKVAALKEKVAALKE
chain 2: QAVVTQEPSLTVSPGGTVTLTCRSSTGAVTTSNYANWVQQKPGQAPRGLIGGTNKRAPWTPARFSGSLLGGKAALTITGAQAEDEADYYCALWYSNLWVFGGGTKLTVLGGGGSGGGGEVQLVQSGAEVKKPGASVKVSCKASGYTFTSYGISWVRQAPGQGLEWMGWISAYNGNTNYAQKLQGRVTMTTDTSTSTAYMELRSLRSDDTAVYYCATIDTANAFDIWGQGTMVTVSSGGCGGGEVAALEKEVAALEKEVAALEKEVAALEK
B2: 179 EK-DART (bispecific antibody)
chain 1: QSVLTQPPSVSAAPGQKVTISCSGSRSNIGNNYVSWYQQLPGTAPKLLIYDSNKRPSGIPDRFSGSKSGTSATLGITGLQTGDEADYYCGTWDSSLSSWVFGGGTKLTVLGGGSGGGGEVQLVESGGGLVQPGGSLRLSCAASGFTFNTYAMNWVRQAPGKGLEWVARIRSKYNNYATYYADSVKDRFTISRDDSKNSLYLQMNSLKTEDTAVYYCVRHGNFGNSYVSWFAYWGQGTLVTVSSGGCGGGKVAALKEKVAALKEKVAALKEKVAALKE
chain 2: QAVVTQEPSLTVSPGGTVTLTCRSSTGAVTTSNYANWVQQKPGQAPRGLIGGTNKRAPWTPARFSGSLLGGKAALTITGAQAEDEADYYCALWYSNLWVFGGGTKLTVLGGGGSGGGGEVQLVQSGAEVKKPGASVKVSCKASGYTFTSYGISWVRQAPGQGLEWMGWISAYNGNTNYAQKLQGRVTMTTDTSTSTAYMELRSLRSDDTAVYYCATIDTANAFDIWGQGTMVTVSSGGCGGGEVAALEKEVAALEKEVAALEKEVAALEK
B3: 177 EK-DART (bispecific antibody)
chain 1: QSVLTQPPSVSAAPGQKVTISCSGSSSNIGNNYVSWYQQLPGTAPKLLIYDNNKRPSGIPDRFSGSKSGTSATLGITGLQTGDEADYYCGTWDSSLSAYVFGTGTKVTVLGGGSGGGGEVQLVESGGGLVQPGGSLRLSCAASGFTFNTYAMNWVRQAPGKGLEWVARIRSKYNNYATYYADSVKDRFTISRDDSKNSLYLQMNSLKTEDTAVYYCVRHGNFGNSYVSWFAYWGQGTLVTVSSGGCGGGKVAALKEKVAALKEKVAALKEKVAALKE
chain 2: QAVVTQEPSLTVSPGGTVTLTCRSSTGAVTTSNYANWVQQKPGQAPRGLIGGTNKRAPWTPARFSGSLLGGKAALTITGAQAEDEADYYCALWYSNLWVFGGGTKLTVLGGGGSGGGGEVQLVQSGAEVKKPGASVKVSCKASGYTFTSYGISWVRQAPGQGLEWMGWISAYNGNTNYAQKLQGRVTMTTDTSTSTAYMELRSLRSDDTAVYYCATIDTANAFDIWGQGTMVTVSSGGCGGGEVAALEKEVAALEKEVAALEKEVAALEK
notes: the K-coil chain is assembled from parts with CD3-2 VH
B4: 180 EK-DART (bispecific antibody)
chain 1: QSVVTQPPSVSAAPGQKVTISCSGSSSNIGNNYVSWYQQLPGTAPKLLIYDNNKRPSGIPDRFSGSKSGTSATLGITGLQTGDEADYYCGTWDSSLSAYVFGTGTKVTVLGGGSGGGGEVQLVESGGGLVQPGGSLRLSCAASGFTFNTYAMNWVRQAPGKGLEWVARIRSKYNNYATYYADSVKDRFTISRDDSKNSLYLQMNSLKTEDTAVYYCVRHGNFGNSYVSWFAYWGQGTLVTVSSGGCGGGKVAALKEKVAALKEKVAALKEKVAALKE
chain 2: QAVVTQEPSLTVSPGGTVTLTCRSSTGAVTTSNYANWVQQKPGQAPRGLIGGTNKRAPWTPARFSGSLLGGKAALTITGAQAEDEADYYCALWYSNLWVFGGGTKLTVLGGGGSGGGGEVQLVQSGAEVKKPGASVKVSCKASGYTFTSYGISWVRQAPGQGLEWMGWISAYNGNTNYAQKLQGRVTMTTDTSTSTAYMELRSLRSDDTAVYYCATIDTANAFDIWGQGTMVTVSSGGCGGGEVAALEKEVAALEKEVAALEKEVAALEK
notes: also called P-CAD 180 EK-DART (CD3-2)
B5: 153 EK-DART (P-CAD 153 x CD3-2) (bispecific antibody)
chain 1: QSVLTQPPSVSAAPGQKVTISCSGSSSNIGNNYVSWYQQLPGTAPKLLIYDNNKRPSGIPDRFSGSKSGTSATLGITGLQTGDEADYYCGTWDSSLSGVVFGGGTKLTVLGGGSGGGGEVQLVESGGGLVQPGGSLRLSCAASGFTFNTYAMNWVRQAPGKGLEWVARIRSKYNNYATYYADSVKDRFTISRDDSKNSLYLQMNSLKTEDTAVYYCVRHGNFGNSYVSWFAYWGQGTLVTVSSGGCGGGKVAALKEKVAALKEKVAALKEKVAALKE
chain 2: QAVVTQEPSLTVSPGGTVTLTCRSSTGAVTTSNYANWVQQKPGQAPRGLIGGTNKRAPWTPARFSGSLLGGKAALTITGAQAEDEADYYCALWYSNLWVFGGGTKLTVLGGGGSGGGGEVQLVQSGAEVKKPGASVKVSCKASGYTFTSYGISWVRQAPGQGLEWMGWISAYNGNTNYAQKLQGRVTMTTDTSTSTAYMELRSLRSDDTAVYYCATIDTANAFGIWGQGTMVTVSSGGCGGGEVAALEKEVAALEKEVAALEKEVAALEK
B6: 178 EK-DART (P-CAD 178 x CD3-2) (bispecific antibody)
chain 1: QSVLTQPPSVSAAPGQKVTISCSGSSSNIGNNYVSWYQQLPGTAPKLLIYDNNKRPSGIPDRFSGSKSGTSATLGITGLQTGDEADYYCGTWDSSLSAVVFGGGTKLTVLGGGSGGGGEVQLVESGGGLVQPGGSLRLSCAASGFTFNTYAMNWVRQAPGKGLEWVARIRSKYNNYATYYADSVKDRFTISRDDSKNSLYLQMNSLKTEDTAVYYCVRHGNFGNSYVSWFAYWGQGTLVTVSSGGCGGGKVAALKEKVAALKEKVAALKEKVAALKE
chain 2: QAVVTQEPSLTVSPGGTVTLTCRSSTGAVTTSNYANWVQQKPGQAPRGLIGGTNKRAPWTPARFSGSLLGGKAALTITGAQAEDEADYYCALWYSNLWVFGGGTKLTVLGGGGSGGGGEVQLVQSGAEVKKPGASVKVSCKASGYTFTSYGISWVRQAPGQGLEWMGWISAYNGNTNYAQKLQGRVTMTTDTSTSTAYMELRSLRSDDTAVYYCATIDTANAFDIWGQGTMVTVSSGGCGGGEVAALEKEVAALEKEVAALEKEVAALEK
B7: 165 EK-DART (P-CAD 165 x CD3-2) (bispecific antibody)
chain 1: QSVLTQPPSVSAAPGQKVTISCSGSSSNIGNNYVSWYQQLPGTAPKLLIYDNNKRPSGIPDRFSGSKSGTSATLGITGLQAGDEADYYCGTWDSSLSAYVFGTGTKVTVLGGGSGGGGEVQLVESGGGLVQPGGSLRLSCAASGFTFNTYAMNWVRQAPGKGLEWVARIRSKYNNYATYYADSVKDRFTISRDDSKNSLYLQMNSLKTEDTAVYYCVRHGNFGNSYVSWFAYWGQGTLVTVSSGGCGGGKVAALKEKVAALKEKVAALKEKVAALKE
chain 2: QAVVTQEPSLTVSPGGTVTLTCRSSTGAVTTSNYANWVQQKPGQAPRGLIGGTNKRAPWTPARFSGSLLGGKAALTITGAQAEDEADYYCALWYSNLWVFGGGTKLTVLGGGGSGGGGEVQLVQSGAEVKKPGASVKVSCKASGYTFTSYGISWVRQAPGQGLEWMGWISAYNGNTNYAQKLQGRVTMTTDTSTSTAYMELRSLRSDDTAVYYCATIDTANAFDIWGQGTMVTVSSGGCGGGEVAALEKEVAALEKEVAALEKEVAALEK
B8: 177 EK-DART (P-CAD 177 x CD3-2) (bispecific antibody)
chain 1: QSVLTQPPSVSAAPGQKVTISCSGSSSNIGNNYVSWYQQLPGTAPKLLIYDNNKRPSGIPDRFSGSKSGTSATLGITGLQTGDEADYYCGTWDSSLSAYVFGTGTKVTVLGGGSGGGGEVQLVESGGGLVQPGGSLRLSCAASGFTFNTYAMNWVRQAPGKGLEWVARIRSKYNNYATYYADSVKDRFTISRDDSKNSLYLQMNSLKTEDTAVYYCVRHGNFGNSYVSWFAYWGQGTLVTVSSGGCGGGKVAALKEKVAALKEKVAALKEKVAALKE
chain 2: QAVVTQEPSLTVSPGGTVTLTCRSSTGAVTTSNYANWVQQKPGQAPRGLIGGTNKRAPWTPARFSGSLLGGKAALTITGAQAEDEADYYCALWYSNLWVFGGGTKLTVLGGGGSGGGGEVQLVQSGAEVKKPGASVKVSCKASGYTFTSYGISWVRQAPGQGLEWMGWISAYNGNTNYAQKLQGRVTMTTDTSTSTAYMELRSLRSDDTAVYYCATIDTANAFDIWGQGTMVTVSSGGCGGGEVAALEKEVAALEKEVAALEKEVAALEK
B9: 154 EK-DART (P-CAD 154 x CD3-2) (bispecific antibody)
chain 1: QSVLTQPPSVSAAPGQKVTISCSGSSSNIGNNYVSWYQQLPGTAPKLLIYDNNKRPSGIPDRFSGSKSGTSATLGITGLQTGDEADYYCGTWDSSLSSYVFGTGTKVTVLGGGSGGGGEVQLVESGGGLVQPGGSLRLSCAASGFTFNTYAMNWVRQAPGKGLEWVARIRSKYNNYATYYADSVKDRFTISRDDSKNSLYLQMNSLKTEDTAVYYCVRHGNFGNSYVSWFAYWGQGTLVTVSSGGCGGGKVAALKEKVAALKEKVAALKEKVAALKE
chain 2: QAVVTQEPSLTVSPGGTVTLTCRSSTGAVTTSNYANWVQQKPGQAPRGLIGGTNKRAPWTPARFSGSLLGGKAALTITGAQAEDEADYYCALWYSNLWVFGGGTKLTVLGGGGSGGGGEVQLVQSGAEVKKPGASVKVSCKASGYTFTSYGISWVRQAPGQGLEWMGWISAYNGNTNYAQKLQGRVTMTTDTSTSTAYMELRSLRSDDTAVYYCATIDTATAFDIWGQGTMVTVSSGGCGGGEVAALEKEVAALEKEVAALEKEVAALEK

biological target: T1, cynomolgus monkey P-cadherin ECD (cynomolgus monkey); assay: SPR Biacore
T1 construct: extracellular domain; also called cyno P-cadherin ECD; Cyno P-cadherin
Method: Binding affinity of EK-DART proteins to P-cadherin and CD3 was analyzed by SPR using a BIACORE® 3000 biosensor (GE Healthcare). The antigens huCD3εδ and either human P-cadherin-Fc or human/cynomolgus monkey/murine P-cadherin-ECD were immobilized on the CM-5 sensor chip by amine coupling kit as recommended by the manufacturer. […] All EK-DART proteins in Tables 15 and 16 comprise CD3-2.
All EK-DART proteins in Table 17 comprise CD3-2.

Going from B1 to B2, the Kd rises from 1310 pM to 4160 pM (3.2-fold).

First: B3
Second: B4
The Kd of the first is 2-fold lower: 483 pM for the first, 966 pM for the second.

Going from B1 to B2, the koff rises from 0.000216 s⁻¹ to 0.00458 s⁻¹ (21-fold).

Compared with B3, B4 is 1.9-fold higher in koff: 0.000383 s⁻¹ for the first, 0.000744 s⁻¹ for the second.

First: B1
Second: B2
The kon of the first is 6.6-fold lower: 167000 M⁻¹ s⁻¹ for the first, 1.11e+06 M⁻¹ s⁻¹ for the second.

B3 and B4 are within 1.5-fold of each other in kon: 802000 M⁻¹ s⁻¹ for the first, 771000 M⁻¹ s⁻¹ for the second.

biological target: human P-cadherin, cell surface expressed (human, UniProt P22223 108-829); assay: cell-based or functional assay
Sequence (P22223 108-829): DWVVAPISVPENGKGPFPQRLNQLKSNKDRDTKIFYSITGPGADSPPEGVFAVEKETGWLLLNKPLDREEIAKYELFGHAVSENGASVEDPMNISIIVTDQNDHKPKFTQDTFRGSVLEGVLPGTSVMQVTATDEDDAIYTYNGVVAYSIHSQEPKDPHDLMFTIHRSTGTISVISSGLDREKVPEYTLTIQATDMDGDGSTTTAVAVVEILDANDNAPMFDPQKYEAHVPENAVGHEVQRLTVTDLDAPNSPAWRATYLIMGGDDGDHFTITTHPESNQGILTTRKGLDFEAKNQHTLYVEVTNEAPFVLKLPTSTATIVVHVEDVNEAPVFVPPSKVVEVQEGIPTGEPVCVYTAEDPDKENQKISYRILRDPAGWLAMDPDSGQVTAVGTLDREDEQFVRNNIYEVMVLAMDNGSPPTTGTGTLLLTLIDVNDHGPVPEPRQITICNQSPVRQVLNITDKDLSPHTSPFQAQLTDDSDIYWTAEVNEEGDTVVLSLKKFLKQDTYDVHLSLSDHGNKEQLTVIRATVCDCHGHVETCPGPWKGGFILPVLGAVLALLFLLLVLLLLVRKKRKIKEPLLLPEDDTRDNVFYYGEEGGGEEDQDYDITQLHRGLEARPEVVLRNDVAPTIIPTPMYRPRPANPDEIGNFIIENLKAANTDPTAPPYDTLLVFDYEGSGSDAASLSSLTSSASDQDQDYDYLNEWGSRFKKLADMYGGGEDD

B5 and B6 are the same in “T cell directed cytotoxicity EC50, H1650 LDH 24 hr 30:1 D41183” value: 0.8 pM for the first, 0.8 pM for the second.

B7 and B8 are the same in “T cell directed cytotoxicity EC50, H1650 LDH 24 hr 30:1 D41183” value: 1.1 pM for the first, 1.1 pM for the second.

For B9, the “T cell directed cytotoxicity EC50, H1650 LDH 24 hr 30:1 D41183” value was 10.7 pM.

Going from B5 to B6, the “T cell directed cytotoxicity EC50, HCT116 Luc 48 hr 10:1 D43905” value rises from 0.5 pM to 1.8 pM (3.6-fold).

First: B7
Second: B8
The “T cell directed cytotoxicity EC50, HCT116 Luc 48 hr 10:1 D43905” value of the first is 2.1-fold higher: 1.5 pM for the first, 0.7 pM for the second.

In the case of B9, the “T cell directed cytotoxicity EC50, HCT116 Luc 48 hr 10:1 D43905” value is reported as 16.6 pM.
